Laboratory results from paper PMC10786891, “Massively parallel profiling of RNA-targeting CRISPR-Cas13d”.

T1: EsCas13d, nuclease-dead (Eubacterium siraeum, UniProt B0MS50, R295A;H300A;R849A;H854A)
T1 sequence: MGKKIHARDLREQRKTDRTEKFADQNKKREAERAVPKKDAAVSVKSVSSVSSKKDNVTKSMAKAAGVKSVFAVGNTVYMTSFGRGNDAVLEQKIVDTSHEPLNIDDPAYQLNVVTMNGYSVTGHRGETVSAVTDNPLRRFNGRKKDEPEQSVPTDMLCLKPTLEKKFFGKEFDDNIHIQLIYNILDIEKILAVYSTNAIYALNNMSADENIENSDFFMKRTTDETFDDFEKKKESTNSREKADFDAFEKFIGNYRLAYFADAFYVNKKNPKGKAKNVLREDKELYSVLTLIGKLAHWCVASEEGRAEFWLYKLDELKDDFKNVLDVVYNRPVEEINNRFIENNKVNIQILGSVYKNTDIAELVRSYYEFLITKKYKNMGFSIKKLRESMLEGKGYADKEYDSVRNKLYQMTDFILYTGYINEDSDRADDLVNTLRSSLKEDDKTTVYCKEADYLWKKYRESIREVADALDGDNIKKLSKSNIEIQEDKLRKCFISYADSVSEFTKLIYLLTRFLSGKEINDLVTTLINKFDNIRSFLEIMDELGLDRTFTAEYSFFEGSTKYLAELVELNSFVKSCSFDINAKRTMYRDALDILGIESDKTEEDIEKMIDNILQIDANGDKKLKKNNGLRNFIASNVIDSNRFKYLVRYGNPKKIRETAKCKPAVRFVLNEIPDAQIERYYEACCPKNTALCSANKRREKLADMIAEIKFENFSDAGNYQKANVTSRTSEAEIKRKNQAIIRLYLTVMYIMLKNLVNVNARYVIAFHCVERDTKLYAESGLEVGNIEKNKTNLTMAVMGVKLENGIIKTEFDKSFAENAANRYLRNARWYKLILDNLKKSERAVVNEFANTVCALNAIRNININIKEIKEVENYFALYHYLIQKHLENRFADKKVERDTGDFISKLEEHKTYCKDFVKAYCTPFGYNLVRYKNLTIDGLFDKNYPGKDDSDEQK


These binders were tested against T1, EsCas13d, nuclease-dead (assay: crRNA (strand 1, pre-loaded); Mg2+; 40 mM Tris-HCl pH 7.5, 150 mM NaCl, 6 mM MgCl2, 1 mM DTT, 0.1% Tween-20, 0.2 mg/ml BSA; 25 C; 10 min per concentration, then washed). Conditions: tags: His6-TwinStrep-SUMO cleaved; N-terminal SNAP kept (SNAP-Surface 488); label: 3' end held by stalled T7 RNA polymerase.

Row | Binder | Kd [nM]
1 | target 1 insA 3' of 15,insU 3' of 5 (mixed) RNA 1: CACCCGUGCAAAAAUGCAGGGGUCUAAAACUGAGCGGAUAACCUCUCUAUGG RNA 2: GGGAAUGGAUCCACAUCUACGAAUUCGUACCAUAGAGAAGGUUAUCCGUCUCACCGAGAUCGGAAGAGCACACGU | 27.9 ± 2.9
2 | target 1 insU 3' of 18,insA 3' of 10 (mixed) RNA 1: CACCCGUGCAAAAAUGCAGGGGUCUAAAACUGAGCGGAUAACCUCUCUAUGG RNA 2: GGGAAUGGAUCCACAUCUACGAAUUCGUACCAUAUGAGAGGUUAAUCCGCUCACCGAGAUCGGAAGAGCACACGU | 41.2 ± 3.1
3 | target 1 U3G,G15U (mixed) RNA 1: CACCCGUGCAAAAAUGCAGGGGUCUAAAACUGAGCGGAUAACCUCUCUAUGG RNA 2: GGGAAUGGAUCCACAUCUACGAAUUCGUACCAUAGAUAGGUUAUCCGCGCACCGAGAUCGGAAGAGCACACGU | ~60
4 | target 1 del5 (mixed) RNA 1: CACCCGUGCAAAAAUGCAGGGGUCUAAAACUGAGCGGAUAACCUCUCUAUGG RNA 2: GGGAAUGGAUCCACAUCUACGAAUUCGUACCAUAGAGAGGUUAUCCCUCACCGAGAUCGGAAGAGCACACGU | 10.4 ± 0.5
5 | target 1 insA 3' of 11,insU 3' of 2 (mixed) RNA 1: CACCCGUGCAAAAAUGCAGGGGUCUAAAACUGAGCGGAUAACCUCUCUAUGG RNA 2: GGGAAUGGAUCCACAUCUACGAAUUCGUACCAUAGAGAGGUAUAUCCGCUCUACCGAGAUCGGAAGAGCACACGU | 22.2 ± 1.1
6 | target 1 insC 3' of 14,insA 3' of 10 (mixed) RNA 1: CACCCGUGCAAAAAUGCAGGGGUCUAAAACUGAGCGGAUAACCUCUCUAUGG RNA 2: GGGAAUGGAUCCACAUCUACGAAUUCGUACCAUAGAGACGGUUAAUCCGCUCACCGAGAUCGGAAGAGCACACGU | 55 ± 8
7 | target 1 insG 3' of 22,insA 3' of 5 (mixed) RNA 1: CACCCGUGCAAAAAUGCAGGGGUCUAAAACUGAGCGGAUAACCUCUCUAUGG RNA 2: GGGAAUGGAUCCACAUCUACGAAUUCGUACGCAUAGAGAGGUUAUCCGACUCACCGAGAUCGGAAGAGCACACGU | 23.1 ± 2.2
8 | target 1 G15A (mixed) RNA 1: CACCCGUGCAAAAAUGCAGGGGUCUAAAACUGAGCGGAUAACCUCUCUAUGG RNA 2: GGGAAUGGAUCCACAUCUACGAAUUCGUACCAUAGAAAGGUUAUCCGCUCACCGAGAUCGGAAGAGCACACGU | 10.8 ± 0.4
9 | target 1 insU 3' of 20,insU 3' of 7 (mixed) RNA 1: CACCCGUGCAAAAAUGCAGGGGUCUAAAACUGAGCGGAUAACCUCUCUAUGG RNA 2: GGGAAUGGAUCCACAUCUACGAAUUCGUACCAUUAGAGAGGUUAUCUCGCUCACCGAGAUCGGAAGAGCACACGU | 28.6 ± 1.5
10 | target 1 insC 3' of 9,insA 3' of 6 (mixed) RNA 1: CACCCGUGCAAAAAUGCAGGGGUCUAAAACUGAGCGGAUAACCUCUCUAUGG RNA 2: GGGAAUGGAUCCACAUCUACGAAUUCGUACCAUAGAGAGGUUACUCCAGCUCACCGAGAUCGGAAGAGCACACGU | 14 ± 0.4
11 | target 1 C4U (mixed) RNA 1: CACCCGUGCAAAAAUGCAGGGGUCUAAAACUGAGCGGAUAACCUCUCUAUGG RNA 2: GGGAAUGGAUCCACAUCUACGAAUUCGUACCAUAGAGAGGUUAUCCGUUCACCGAGAUCGGAAGAGCACACGU | 30 ± 4
12 | target 1 C6A,C22G (mixed) RNA 1: CACCCGUGCAAAAAUGCAGGGGUCUAAAACUGAGCGGAUAACCUCUCUAUGG RNA 2: GGGAAUGGAUCCACAUCUACGAAUUCGUAGCAUAGAGAGGUUAUCAGCUCACCGAGAUCGGAAGAGCACACGU | 39 ± 5
13 | target 1 insU 3' of 22,insC 3' of 20 (mixed) RNA 1: CACCCGUGCAAAAAUGCAGGGGUCUAAAACUGAGCGGAUAACCUCUCUAUGG RNA 2: GGGAAUGGAUCCACAUCUACGAAUUCGUACUCACUAGAGAGGUUAUCCGCUCACCGAGAUCGGAAGAGCACACGU | 18.3 ± 1.4
14 | target 1 insC 3' of 12,insG 3' of 9 (mixed) RNA 1: CACCCGUGCAAAAAUGCAGGGGUCUAAAACUGAGCGGAUAACCUCUCUAUGG RNA 2: GGGAAUGGAUCCACAUCUACGAAUUCGUACCAUAGAGAGGCUUAGUCCGCUCACCGAGAUCGGAAGAGCACACGU | 24 ± 1.2
15 | target 1 del7,del13 (mixed) RNA 1: CACCCGUGCAAAAAUGCAGGGGUCUAAAACUGAGCGGAUAACCUCUCUAUGG RNA 2: GGGAAUGGAUCCACAUCUACGAAUUCGUACCAUAGAGAGUUAUCGCUCACCGAGAUCGGAAGAGCACACGU | 15.6 ± 1.3
16 | target 1 insG 3' of 22,insA 3' of 13 (mixed) RNA 1: CACCCGUGCAAAAAUGCAGGGGUCUAAAACUGAGCGGAUAACCUCUCUAUGG RNA 2: GGGAAUGGAUCCACAUCUACGAAUUCGUACGCAUAGAGAGAGUUAUCCGCUCACCGAGAUCGGAAGAGCACACGU | 11.5 ± 0.7
17 | target 1 U8C,C21U (mixed) RNA 1: CACCCGUGCAAAAAUGCAGGGGUCUAAAACUGAGCGGAUAACCUCUCUAUGG RNA 2: GGGAAUGGAUCCACAUCUACGAAUUCGUACUAUAGAGAGGUUACCCGCUCACCGAGAUCGGAAGAGCACACGU | 9.6 ± 0.5
18 | target 1 C4A,U11G (mixed) RNA 1: CACCCGUGCAAAAAUGCAGGGGUCUAAAACUGAGCGGAUAACCUCUCUAUGG RNA 2: GGGAAUGGAUCCACAUCUACGAAUUCGUACCAUAGAGAGGGUAUCCGAUCACCGAGAUCGGAAGAGCACACGU | 8.4 ± 0.7
19 | target 1 G12C,C21U (mixed) RNA 1: CACCCGUGCAAAAAUGCAGGGGUCUAAAACUGAGCGGAUAACCUCUCUAUGG RNA 2: GGGAAUGGAUCCACAUCUACGAAUUCGUACUAUAGAGAGCUUAUCCGCUCACCGAGAUCGGAAGAGCACACGU | 6 ± 0.5
20 | target 1 A9U,A16G (mixed) RNA 1: CACCCGUGCAAAAAUGCAGGGGUCUAAAACUGAGCGGAUAACCUCUCUAUGG RNA 2: GGGAAUGGAUCCACAUCUACGAAUUCGUACCAUAGGGAGGUUUUCCGCUCACCGAGAUCGGAAGAGCACACGU | 67 ± 9
21 | target 1 G12U,C22U (mixed) RNA 1: CACCCGUGCAAAAAUGCAGGGGUCUAAAACUGAGCGGAUAACCUCUCUAUGG RNA 2: GGGAAUGGAUCCACAUCUACGAAUUCGUAUCAUAGAGAGUUUAUCCGCUCACCGAGAUCGGAAGAGCACACGU | 21.7 ± 2.8
22 | target 1 C2G,A9U (mixed) RNA 1: CACCCGUGCAAAAAUGCAGGGGUCUAAAACUGAGCGGAUAACCUCUCUAUGG RNA 2: GGGAAUGGAUCCACAUCUACGAAUUCGUACCAUAGAGAGGUUUUCCGCUGACCGAGAUCGGAAGAGCACACGU | 8.7 ± 1
23 | target 1 G5A,U8A (mixed) RNA 1: CACCCGUGCAAAAAUGCAGGGGUCUAAAACUGAGCGGAUAACCUCUCUAUGG RNA 2: GGGAAUGGAUCCACAUCUACGAAUUCGUACCAUAGAGAGGUUAACCACUCACCGAGAUCGGAAGAGCACACGU | 45 ± 4
24 | target 1 insA 3' of 15,insA 3' of 10 (mixed) RNA 1: CACCCGUGCAAAAAUGCAGGGGUCUAAAACUGAGCGGAUAACCUCUCUAUGG RNA 2: GGGAAUGGAUCCACAUCUACGAAUUCGUACCAUAGAGAAGGUUAAUCCGCUCACCGAGAUCGGAAGAGCACACGU | 9.7 ± 0.6
25 | target 1 G12U,A18C (mixed) RNA 1: CACCCGUGCAAAAAUGCAGGGGUCUAAAACUGAGCGGAUAACCUCUCUAUGG RNA 2: GGGAAUGGAUCCACAUCUACGAAUUCGUACCAUCGAGAGUUUAUCCGCUCACCGAGAUCGGAAGAGCACACGU | 40 ± 4
26 | target 1 insG 3' of 21,insG 3' of 3 (mixed) RNA 1: CACCCGUGCAAAAAUGCAGGGGUCUAAAACUGAGCGGAUAACCUCUCUAUGG RNA 2: GGGAAUGGAUCCACAUCUACGAAUUCGUACCGAUAGAGAGGUUAUCCGCUGCACCGAGAUCGGAAGAGCACACGU | 43 ± 6
27 | target 1 insG 3' of 8,insU 3' of 5 (mixed) RNA 1: CACCCGUGCAAAAAUGCAGGGGUCUAAAACUGAGCGGAUAACCUCUCUAUGG RNA 2: GGGAAUGGAUCCACAUCUACGAAUUCGUACCAUAGAGAGGUUAUGCCGUCUCACCGAGAUCGGAAGAGCACACGU | 15.7 ± 1.1
28 | target 1 insC 3' of 19,insA 3' of 3 (mixed) RNA 1: CACCCGUGCAAAAAUGCAGGGGUCUAAAACUGAGCGGAUAACCUCUCUAUGG RNA 2: GGGAAUGGAUCCACAUCUACGAAUUCGUACCAUCAGAGAGGUUAUCCGCUACACCGAGAUCGGAAGAGCACACGU | 29.8 ± 2.1
